Test results: patent publication US20180217151A1 (MILTENYI BIOTEC, published 2018)

Legend:
Assay in all cases: SPR (Biacore), recombinant antigen (extracellular domain) immobilized by amine coupling, Fab as analyte, 1:1 binding mass transfer model
[1] = molecular target: T1, recombinant CD45RA antigen ( (the Fab labels human PBMCs))
T1 construct: extracellular domain; also called CD45RA, recombinant extracellular domain
Procedure: (§1) FIGS. 7A and 7B show surface plasmon resonance sensorgrams of anti-CD25 rFabs using immobilized recombinant CD25 antigen. At t 110 sec, different concentrations of Fab were injected for 180 sec. At t 290 sec, the dissociation phase started.
(§2) The Fab variants of example 1 and 4 were analyzed by surface plasmon resonance spectroscopy (Biacore™). Therefore, the specific recombinant antigen (extracellular domain, expressed in mammalian cells) for a Fab was immobilized on a CMS chip by standard amine coupling. The Fab variants were used as analytes in HBS-EP buffer (0.01 M HEPES pH 7.4, 0.15 M NaCl, 3 mM EDTA, 0.005% v/v Surfactant P20) in a concentration of up to 2 μM Fab. Evaluation was conducted with the Biacore™ X-100 Evaluation Software using an 1:1 binding mass transfer model.

[2] = molecular target: T2, recombinant CD4 antigen ( (the Fab labels human PBMCs), UniProt P01730)
T2 construct: extracellular domain; also called CD4, recombinant extracellular domain
Procedure: as §1, §2

[3] = molecular target: T3, recombinant CD28 antigen ( (the Fab labels human PBMCs), UniProt P10747)
T3 construct: extracellular domain; also called CD28, recombinant extracellular domain
Procedure: as §1, §2

[4] = molecular target: recombinant CD3 antigen ( (the Fab labels human PBMCs))
Procedure: as §1, §2

[5] = molecular target: T4, recombinant CD25 antigen ( (the Fab labels human PBMCs), UniProt P01589)
T4 construct: extracellular domain; also called immobilized recombinant CD25 antigen; CD25, recombinant extracellular domain
T4 sequence (antigen, looked up): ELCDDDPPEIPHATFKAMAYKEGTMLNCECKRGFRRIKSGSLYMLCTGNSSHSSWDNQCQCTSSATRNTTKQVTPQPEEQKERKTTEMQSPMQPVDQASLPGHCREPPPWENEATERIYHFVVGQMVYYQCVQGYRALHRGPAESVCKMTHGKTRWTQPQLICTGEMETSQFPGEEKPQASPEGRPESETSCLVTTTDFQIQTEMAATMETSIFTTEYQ
Procedure: as §1, §2

Chain of recombinant CD3 antigen ( (the Fab labels human PBMCs)) (chain, as listed by the source): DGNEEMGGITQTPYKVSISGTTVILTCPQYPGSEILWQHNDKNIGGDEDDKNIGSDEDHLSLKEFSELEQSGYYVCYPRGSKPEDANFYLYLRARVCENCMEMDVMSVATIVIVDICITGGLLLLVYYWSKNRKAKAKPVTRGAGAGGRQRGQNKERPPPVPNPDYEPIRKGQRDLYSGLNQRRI

B1: MEM56-LAV rFab (Fab, V domains shown)
VH: QVQLQQSGAELAKPGASVKMSCKASGYNFTRYWMHWIKQRPGQGLEWIGYINPNTGHTEYNQKFKDKATLTADKSSSTAYMQLSSLTSEDSAVYYCATYYYGSRRDAGQGTTLTVSS
VL: QIVLTQSPAIMSASLGERVTMTCTTSSSVSSSYLHWYQQKPGSSPKLWIYSTSNLASGVPARFSGSGSGTSYSLTISTVEAEDAATYYCHQYHRSPLTFGAGTKLELKR
modifications: In the cell assay the Fab was biotinylated with a thiol-reactive reagent (e.g. maleimide-PEO2-biotin) on cysteines of the reduced disulfide bridge; positions not stated.
notes: Recombinant Fab from E. coli; heavy chain optionally followed by a poly-histidine tag; Biotinylated for the cell assay; also called mutated variant of anti-CD45RA clone MEM56
[1]
  Kd: 1300 nM
  koff: 0.11 s⁻¹
  kon: 88000 M⁻¹ s⁻¹

B2: 13B8.2-LAV rFab (Fab, V domains shown)
VH: QVQLKQSGPGLVQPSQSLSITCTVSGFSLTTFGVHWVRQSPGKGLEWLGVIWASGITDYNVPFMSRLSITKDNSKSQVFFKLNSLQPDDTAIYYCAKNDPGTGFAYWGQGTLVTVSA
VL: DIQMTQSPASLSASVGETVTFTCRASENIYSYLAWYQQKQGKSPQLLVHDAKTLAEGVPSRFSGGGSGTQFSLKINTLQPEDFGTYYCQHAYGNPPTFGGGTKLEIKR
modifications: For the cell assay: biotin (thiol-reactive reagent) on cysteine(s) of the reduced disulfide bridge, position not stated
notes: Recombinant Fab from E. coli; heavy chain optionally followed by a poly-histidine tag; Biotinylated for the cell assay; also called mutated variant of anti-CD4 clone 13B8.2
[2]
  Kd: 15000 nM
  koff: 0.006 s⁻¹
  kon: 410 M⁻¹ s⁻¹

B3: 15E8-hum rFab (Fab, V domains shown)
VH: QVQLQESGPGLVKPSETLSLTCTVSGFSLTSYGVHWIRQPPGKGLEWLGVIWAGGSTNYNSSLKSRVTISKDTSKNQVSLKLSSVTAADTAVYYCARDKRAPGKLYYGYPDYWGQGTTLTVSS
VL: DIVMTQSPDSLAVSLGERATINCRASESVEYYVTSLMQWYQQKPGQPPKLLIYAASNVESGVPARFSGSGSGTDFTLTISPLQAEDVAVYYCQQTRKVPSTFGGGTKLEIKR
modifications: For the cell assay: biotin (thiol-reactive reagent) on cysteine(s) of the reduced disulfide bridge, position not stated
notes: Recombinant Fab from E. coli; heavy chain optionally followed by a poly-histidine tag; Biotinylated for the cell assay; also called humanized variant of anti-CD28 clone 15E8
[3]
  Kd: 21 nM
  koff: 0.089 s⁻¹
  kon: 4.3e+06 M⁻¹ s⁻¹

B4: OKT3-hum rFab (Fab, V domains shown)
VH: QVQLVQSGGGVVQPGRSLRLSCKASGYTFTRYTMHWVRQAPGKGLEWIGYINPSRGYTNYNQKVKDRFTISRDNSKNTAFLQMDSLRPEDTGVYFCARYYDDHYSLDYWGQGTPVTVSS
VL: DIQMTQSPSSLSASVGDRVTITCSASSSVSYMNWYQQTPGKAPKRWIYDTSKLASGVPSRFSGSGSGTDYTFTISSLQPEDIATYYCQQWSSNPFTFGQGTKLQITR
modifications: For the cell assay: biotin (thiol-reactive reagent) on cysteine(s) of the reduced disulfide bridge, position not stated
notes: Recombinant Fab from E. coli; purified by IMAC; also called humanized variant of anti-CD3 clone OKT3; anti-CD3 rFab
[4]
  Kd: 46 nM
  koff: 0.19 s⁻¹
  kon: 4.1e+06 M⁻¹ s⁻¹

B5: RFT5 rFab (Fab, V domains shown)
VH: EVQLQQSGTVLARPGASVKMSCKASGYSFTRYWMHWIKQRPGQGLEWIGAIYPGNSDTSYNQKFEGKAKLTAVTSASTAYMELSSLTHEDSAVYYCSRDYGYYFDFWGQGTTLTVSS
VL: QIVLTQSPAIMSASPGEKVTMTCSASSSISYMQWYQQKPGTSPKRWIYDTSKLASGVPARFSGSGSGTSYSLTISSMEAEDAATYYCHQRSSYTFGGGTKLEIKR
modifications: For the cell assay: biotin (thiol-reactive reagent) on cysteine(s) of the reduced disulfide bridge, position not stated
notes: Recombinant Fab from E. coli; heavy chain optionally followed by a poly-histidine tag; Biotinylated for the cell assay; also called anti-CD25 rFab (based on clone RFT5)
[5]
  Kd: 0.2 nM
  koff: 0.00038 s⁻¹
  kon: 1.9e+06 M⁻¹ s⁻¹

B6: RFT5-LAV rFab (Fab, V domains shown)
VH: EVQLQQSGTVLARPGASVKMSCKASGYSFTRYWMAWIKQRPGQGLEWIGAIYPGNSDTSYNQKFEGKAKLTAVTSASTAYMELSSLTHEDSAVYYCSRDYGYYFDFAGQGTTLTVSS
VL: QIVLTQSPAIMSASPGEKVTMTCSASSSISYMQWYQQKPGTSPKRWIYDTSKLASGVPARFSGSGSGTSYSLTISSMEAEDAATYYCHQRSSYTFGGGTKLEIKR
modifications: For the cell assay: biotin (thiol-reactive reagent) on cysteine(s) of the reduced disulfide bridge, position not stated
notes: Recombinant Fab from E. coli; heavy chain optionally followed by a poly-histidine tag; Biotinylated for the cell assay; also called mutated variant of anti-CD25 clone RFT5
[5]
  Kd: 21 nM
  koff: 0.21 s⁻¹
  kon: 1e+07 M⁻¹ s⁻¹
